# Reference: US20220177599A1
# Legend:
# [1] = biological target: Recombinant human EpCAM monomer protein (R&D systems, cat. no. 9277-EP), conjugated with Alexa Fluor 647 (human) (UniProt P16422); assay: flow cytometry saturation binding: CAR-expressing Jurkat T cells stained with serially diluted AF647-conjugated EpCAM, MFI fitted with the one-site nonlinear regression model
# [2] = biological target: Recombinant human EpCAM monomer protein (R&D systems, cat. no. 9277-EP), conjugated with Alexa Fluor 647 (human) (UniProt P16422); assay: saturation binding by flow cytometry: CAR-expressing Jurkat T cells stained with serially diluted Alexa Fluor 647-conjugated EpCAM, one-site nonlinear regression of MFI
# [3] = biological target: EpCAM on tumor cells (SK-BR3, Capan-2, HT-29, SNU-638, MKN-45, MDA-MB-231, SW-1990) (human) (UniProt P16422); assay: cell-based or functional assay
# [4] = biological target: Recombinant human EpCAM monomer protein (R&D systems, cat. no. 9277-EP), conjugated with Alexa Fluor 647 (human) (UniProt P16422); assay: saturation binding by flow cytometry on CAR-expressing Jurkat T cells with Alexa Fluor 647-conjugated EpCAM; reference is C215 CAR
# [5] = biological target: Intercellular adhesion molecule-1 (ICAM-1) on tumor cells (SNU-638, MKN-45) (human) (UniProt P05362); assay: cell-based or functional assay
# UniProt P05362, sequence (P05362 28-532): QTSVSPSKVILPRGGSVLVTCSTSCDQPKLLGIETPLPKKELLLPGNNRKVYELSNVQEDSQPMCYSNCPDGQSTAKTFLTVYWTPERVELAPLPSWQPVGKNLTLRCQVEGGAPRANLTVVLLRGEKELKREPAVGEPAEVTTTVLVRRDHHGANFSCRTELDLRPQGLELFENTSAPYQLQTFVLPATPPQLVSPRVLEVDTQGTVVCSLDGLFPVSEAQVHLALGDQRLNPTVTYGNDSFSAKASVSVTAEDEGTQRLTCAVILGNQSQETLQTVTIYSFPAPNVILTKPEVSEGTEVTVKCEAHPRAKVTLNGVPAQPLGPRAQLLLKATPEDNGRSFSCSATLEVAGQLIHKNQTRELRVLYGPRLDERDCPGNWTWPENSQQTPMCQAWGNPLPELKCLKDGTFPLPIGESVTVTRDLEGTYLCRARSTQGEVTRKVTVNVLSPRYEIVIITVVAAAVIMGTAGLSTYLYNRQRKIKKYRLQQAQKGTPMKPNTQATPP
molecule,measurement,setting,value
"C215 CAR (anti-EpCAM chimeric antigen receptor with the scFv of mouse monoclonal antibody C215, CD28-CD3ζ 2nd generation backbone)",Kd,[1],3.95 nM
same,Kd,[2],4 nM
"UBS54 CAR (anti-EpCAM chimeric antigen receptor with the scFv of monoclonal antibody UBS-54, CD28-CD3ζ 2nd generation backbone)",Kd,[1],253 nM
same,"lysis of SNU-638 and MKN-45 wild-type cells at 48 hours (bioluminescence-based cytotoxicity assay, E:T 1:1)",[3],90%
same,Kd,[2],250 nM
same,fold difference of KD against C215 CAR,[4],> 60 fold
"F292A CAR (ICAM-1 CAR with the LFA-1 αL I domain carrying the F292A mutation, 4-1BB-CD3ζ) (receptor, part only; not given: hinge, transmembrane, signalling domains, tag, not shown: large carriers) chain, part: VDLVFLFDGSMSLQPDEFQKILDFMKDVMKKLSNTSYQFAAVQFSTSYKTEFDFSDYVKWKDPDALLKHVKHMLLLTNTFGAINYVATEVFREELGARPDATKVLIIITDGEATDSGNIDAAKDIIRYIIGIGKHFQTKESQETLHKFASKPASEFVKILDTAEKLKDLFTELQKKIYVIE","killing of MKN-45 cells at 48 hours (bioluminescence-based cytotoxicity assay, E:T 1:1)",[5],0
same,"specific lysis of SNU-638 cells at 48 hours (bioluminescence-based cytotoxicity assay, E:T 1:1)",[5],40%
